Measurements: IntAct's records for PubMed 25783203

B1: Vacuolar protein sorting-associated protein 33A (Homo sapiens), Q96AX1 (parent)
chain: MAAHLSYGRVNLNVLREAVRRELREFLDKCAGSKAIVWDEYLTGPFGLIAQYSLLKEHEVEKMFTLKGNRLPAADVKNIIFFVRPRLELMDIIAENVLSEDRRGPTRDFHILFVPRRSLLCEQRLKDLGVLGSFIHREEYSLDLIPFDGDLLSMESEGAFKECYLEGDQTSLYHAAKGLMTLQALYGTIPQIFGKGECARQVANMMIRMKREFTGSQNSIFPVFDNLLLLDRNVDLLTPLATQLTYEGLIDEIYGIQNSYVKLPPEKFAPKKQGDGGKDLPTEAKKLQLNSAEELYAEIRDKNFNAVGSVLSKKAKIISAAFEERHNAKTVGEIKQFVSQLPHMQAARGSLANHTSIAELIKDVTTSEDFFDKLTVEQEFMSGIDTDKVNNYIEDCIAQKHSLIKVLRLVCLQSVCNSGLKQKVLDYYKREILQTYGYEHILTLHNLEKAGLLKPQTGGRNNYPTIRKTLRLWMDDVNEQNPTDISYVYSGYAPLSVRLAQLLSRPGWRSIEEVLRILPGPHFEERQPLPTGLQKKRQPGENRVTLIFFLGGVTFAEIAALRFLSQLEDGGTEYVIATTKLMNGTSWIEALMEKPF
partner: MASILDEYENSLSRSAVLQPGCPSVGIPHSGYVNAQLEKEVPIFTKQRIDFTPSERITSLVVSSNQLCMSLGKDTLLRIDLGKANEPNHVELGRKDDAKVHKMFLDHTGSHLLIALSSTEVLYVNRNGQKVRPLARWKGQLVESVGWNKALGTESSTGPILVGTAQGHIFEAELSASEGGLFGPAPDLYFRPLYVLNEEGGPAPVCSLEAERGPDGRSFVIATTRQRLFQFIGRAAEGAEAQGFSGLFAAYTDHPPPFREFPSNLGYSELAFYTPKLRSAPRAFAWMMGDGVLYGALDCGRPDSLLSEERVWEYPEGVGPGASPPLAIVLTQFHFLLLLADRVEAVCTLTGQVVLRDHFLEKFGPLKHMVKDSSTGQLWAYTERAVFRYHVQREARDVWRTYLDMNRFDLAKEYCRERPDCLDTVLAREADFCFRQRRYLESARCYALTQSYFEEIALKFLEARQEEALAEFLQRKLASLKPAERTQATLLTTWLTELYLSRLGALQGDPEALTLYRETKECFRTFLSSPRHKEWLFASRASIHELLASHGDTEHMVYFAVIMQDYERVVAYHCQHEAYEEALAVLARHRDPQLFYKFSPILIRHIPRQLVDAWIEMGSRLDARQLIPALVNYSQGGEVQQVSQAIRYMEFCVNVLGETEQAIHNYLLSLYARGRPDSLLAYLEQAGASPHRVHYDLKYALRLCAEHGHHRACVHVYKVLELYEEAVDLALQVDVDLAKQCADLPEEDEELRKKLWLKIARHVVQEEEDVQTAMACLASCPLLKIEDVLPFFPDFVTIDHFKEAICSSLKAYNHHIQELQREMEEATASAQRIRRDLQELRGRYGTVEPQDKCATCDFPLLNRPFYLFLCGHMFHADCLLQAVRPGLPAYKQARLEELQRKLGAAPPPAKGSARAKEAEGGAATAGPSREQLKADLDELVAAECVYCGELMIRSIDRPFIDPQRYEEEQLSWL

Variants of: B1
Conditions: with vps18_human VPS18, Q9P253

| effect of a mutation on the interaction | Variant |
| --- | --- |
| disrupting interaction | Y438D;I441K |
| disrupting interaction | K429D;Y438D |
| disrupting interaction | K429D;I441K |
